From article PMC11139282, “Structure and activity of the septal peptidoglycan hydrolysis machinery crucial for bacterial cell division” (PLOS Biology, 2024)

B1: FtsX(His&Myc) [E. coli K-12] / FtsE(Flag) [E. coli K-12] (parent)
chain 1: MIRFEHVSKAYLGGRQALQGVTFHMQPGEMAFLTGHSGAGKSTLLKLICGIERPSAGKIWFSGHDITRLKNREVPFLRRQIGMIFQDHHLLMDRTVYDNVAIPLIIAGASGDDIRRRVSAALDKVGLLDKAKNFPIQLSGGEQQRVGIARAVVNKPAVLLADEPTGNLDDALSEGILRLFEEFNRVGVTVLMATHDINLISRRSYRMLTLSDGHLHGGVGHE
chain 2: MNKRDAINHIRQFGGRLDRFRKSVGGSGDGGRNAPKRAKSSPKPVNRKTNVFNEQVRYAFHGALQDLKSKPFATFLTVMVIAISLTLPSVCYMVYKNVNQAATQYYPSPQITVYLQKTLDDDAAAGVVAQLQAEQGVEKVNYLSREDALGEFRNWSGFGGALDMLEENPLPAVAVVIPKLDFQGTESLNTLRDRITQINGIDEVRMDDSWFARLAALTGLVGRVSAMIGVLMVAAVFLVIGNSVRLSIFARRDSINVQKLIGATDGFILRPFLYGGALLGFSGALLSLILSEILVLRLSSAVAEVAQVFGTKFDINGLSFDECLLLLLVCSMIGWVAAWLATVQHLRHFTPE

Variants of: B1
Assay: western blot of membrane fraction, quantified (FtsE retained on membrane with FtsX)
Settings: with FtsE(Flag) [E. coli K-12]; parent: 1.3; read off a plot

Row | response (OmpC adjusted) | Variant
1 | 0.5 | chain 2 MNKRDAINHIRQFGGRLDRFRKSVGGSGDGGRNAPKRAKSSPKPVNRKTNVFNEQVRYAFHGALQDLKSKPFATFLTVMVIAISLTLPSVCYMVYKNVNQAATQYYPSPQITVYLQKTLDDDAAAGVVAQLQAEQGVEKVNYLSREDALGEFRNWSGFGGALDMLEENPLPAVAVVIPKLDFQGTESLNTLRDRITQINGIDEVRMDDSWFARLAALTGLVGRVSAMIGVLMVAAVFLVIGNSVRLSIFARRDSINVQKLIGATDGAILRPFLYGGALLGFSGALLSLILSEILVLRLSSAVAEVAQVFGTKFDINGLSFDECLLLLLVCSMIGWVAAWLATVQHLRHFTPE [chain 2 F267A]
2 | 0.38 | chain 2 MNKRDAINHIRQFGGRLDRFRKSVGGSGDGGRNAPKRAKSSPKPVNRKTNVFNEQVRYAFHGALQDLKSKPFATFLTVMVIAISLTLPSVCYMVYKNVNQAATQYYPSPQITVYLQKTLDDDAAAGVVAQLQAEQGVEKVNYLSREDALGEFRNWSGFGGALDMLEENPLPAVAVVIPKLDFQGTESLNTLRDRITQINGIDEVRMDDSWFARLAALTGLVGRVSAMIGVLMVAAVFLVIGNSVRLSIFARRDSINPQKLIGATDGFILRPFLYGGALLGFSGALLSLILSEILVLRLSSAVAEVAQVFGTKFDINGLSFDECLLLLLVCSMIGWVAAWLATVQHLRHFTPE [chain 2 V257P]

The remaining lines, values behind:

Row | Variant | response (OmpC adjusted)
3 | chain 2 MNKRDAINHIRQFGGRLDRFRKSVGGSGDGGRNAPKRAKSSPKPVNRKTNVFNEQVRYAFHGALQDLKSKPFATFLTVMVIAISLTLPSVCYMVYKNVNQAATQYYPSPQITVYLQKTLDDDAAAGVVAQLQAEQGVEKVNYLSREDALGEFRNWSGFGGALDMLEENPLPAVAVVIPKLDFQGTESLNTLRDRITQINGIDEVRMDDSWFARLAALTGLVGRVSAMIGVLMVAAVFLVIGNSVRLSIFARRDSINVQKLDGATDGFILRPFLYGGALLGFSGALLSLILSEILVLRLSSAVAEVAQVFGTKFDINGLSFDECLLLLLVCSMIGWVAAWLATVQHLRHFTPE [chain 2 I261D] | 0.11
4 | chain 2 MNKRDAINHIRQFGGRLDRFRKSVGGSGDGGRNAPKRAKSSPKPVNRKTNVFNEQVRYAFHGALQDLKSKPFATFLTVMVIAISLTLPSVCYMVYKNVNQAATQYYPSPQITVYLQKTLDDDAAAGVVAQLQAEQGVEKVNYLSREDALGEFRNWSGFGGALDMLEENPLPAVAVVIPKLDFQGTESLNTLRDRITQINGIDEVRMDDSWFARLAALTGLVGRVSAMIGVLMVAAVFLVIGNSVRLSIFARRDSINVQKLIGAKDGFILRPFLYGGALLGFSGALLSLILSEILVLRLSSAVAEVAQVFGTKFDINGLSFDECLLLLLVCSMIGWVAAWLATVQHLRHFTPE [chain 2 T264K] | 0.51
